Residue numbers refer to the chain shown, from its start. Names and notes keep the numbering of the source.
T1: rHuman Erythropoietin R/Fc Chimera, CF (R&D Systems Cat#963-ER) (human, UniProt P19235 25-250)
T1 construct: Bought recombinant protein; also called EPO R; EPO R/Fc
T1 sequence (looked up): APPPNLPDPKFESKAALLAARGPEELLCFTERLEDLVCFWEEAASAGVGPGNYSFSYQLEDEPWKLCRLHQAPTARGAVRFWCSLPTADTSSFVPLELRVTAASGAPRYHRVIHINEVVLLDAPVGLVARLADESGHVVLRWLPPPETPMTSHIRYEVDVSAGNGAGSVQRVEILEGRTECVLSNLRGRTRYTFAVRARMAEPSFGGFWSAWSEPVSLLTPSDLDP

B1: Fab VH1-46_IGHD6-6*01_IGHJ1*01 S102A/S103P/S104F/H111F & L6_IGKJ1*01 (Fab, V domains shown)
VH: QVQLVQSGAEVKKPGASVKVSCKASGYTFTSYYMHWVRQAPGQGLEWMGIINPSGGSTSYAQKFQGRVTMTRDTSTSTVYMELSSLRSEDTAVYYCAREEYAPFSAEYFQFWGQGTLVTVSS
VL: not shown
notes: also called H:APFF & L:wt; APFF
B2: Fab VH1-46_IGHD6-6*01_IGHJ1*01 S102A/S103P/S104F/H111F & L6_IGKJ1*01 A51T (Fab, V domains shown)
VH: B1 VH
VL: EIVLTQSPATLSLSPGERATLSCRASQSVSSYLAWYQQKPGQAPRLLIYDTSNRATGIPARFSGSGSGTDFTLTISSLEPEDFAVYYCQQRSNWPPWTFGQGTKVEIKR
notes: also called APFF & L6_IGKJ1*01 A51T
B3: Fab VH1-46_IGHD6-6*01_IGHJ1*01 S102A/S103P/S104F/H111F (APFF) & L6_IGKJ1*01 S31D (Fab, V domains shown)
VH: B1 VH
VL: B2 VL with S31D, T51A
notes: Tested as Fab (CH1 with His6/Flag tags, kappa CL) made in E. coli; also called APFF / S31D
B4: Fab VH1-46_IGHD6-6*01_IGHJ1*01 S102A/S103P/S104F/H111F (APFF) & L6_IGKJ1*01 S31F (Fab, V domains shown)
VH: B1 VH
VL: B2 VL with S31F, T51A
notes: Tested as Fab (CH1 with His6/Flag tags, kappa CL) made in E. coli; also called APFF / S31F
B5: Fab VH1-46_IGHD6-6*01_IGHJ1*01 S102A/S103P/S104F/H111F (APFF) & L6_IGKJ1*01 S31H (Fab, V domains shown)
VH: B1 VH
VL: B2 VL with S31H, T51A
notes: Tested as Fab (CH1 with His6/Flag tags, kappa CL) made in E. coli; also called APFF / S31H
B6: Fab VH1-46_IGHD6-6*01_IGHJ1*01 S102A/S103P/S104F/H111F (APFF) & L6_IGKJ1*01 S31I (Fab, V domains shown)
VH: B1 VH
VL: B2 VL with S31I, T51A
notes: Tested as Fab (CH1 with His6/Flag tags, kappa CL) made in E. coli; also called APFF / S31I
B7: Fab VH1-46_IGHD6-6*01_IGHJ1*01 S102A/S103P/S104F/H111F (APFF) & L6_IGKJ1*01 S31L (Fab, V domains shown)
VH: B1 VH
VL: B2 VL with S31L, T51A
notes: Tested as Fab (CH1 with His6/Flag tags, kappa CL) made in E. coli; also called APFF / S31L

Target: T2, Recombinant Human DLL4 (delta-like protein 4) (human, UniProt Q9NR61 27-524)
T2 construct: also called rHuman DLL4; Delta-like 4
Experiment: ECL (MSD) binding assay, DLL4 immobilised, Fab at 10 nM

Going from B1 to B2, the “Signal [10 nM Fab]” value falls from 13500 to 2850.

Target: T3, rHuman ErbB2/Fc Chimera, CF (R&D Systems Cat#1129-ER) (human, UniProt P04626 23-652)
T3 construct: Bought recombinant protein; also called human epidermal growth factor 2 receptor
Experiment: ECL multispot (MSD) binding assay, antigen spotted on plate;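 also: purified Fab incubated 1 h at 20 °C on antigen spots, detected with TAG-labelled antibody, electrochemiluminescence compared with each well's blank, signal-to-blank ratio ≥4 counted as hit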

Compared with B3, B4 is lower in ECL signal: 479 for the first, 295 for the second.

First: B5
Second: B6
The ECL signal of the first is higher: 307 for the first, 222 for the second.

Binder B7 has an ECL signal of 288.

Target: T4, rHuman EGF R/Fc Chimera, CF (R&D Systems Cat#344-ER) (human, UniProt P00533 25-645)
T4 construct: Bought recombinant protein; also called epidermal growth factor receptor
Experiment: as above

First: B3
Second: B4
The ECL signal of the first is higher: 438 for the first, 342 for the second.

First: B5
Second: B6
The ECL signal of the first is higher: 373 for the first, 363 for the second.

B7 showed an ECL signal of 375.

Target: T5, rHuman HGF R/c-MET/Fc Chimera, CF (R&D Systems Cat#358-MT/CF) (human, UniProt P08581 25-932)
T5 construct: Bought recombinant protein; also called HGF R/Fc; hepatocyte growth factor receptor
Experiment: as above

T5 sequence (P08581 25-932, change not shown): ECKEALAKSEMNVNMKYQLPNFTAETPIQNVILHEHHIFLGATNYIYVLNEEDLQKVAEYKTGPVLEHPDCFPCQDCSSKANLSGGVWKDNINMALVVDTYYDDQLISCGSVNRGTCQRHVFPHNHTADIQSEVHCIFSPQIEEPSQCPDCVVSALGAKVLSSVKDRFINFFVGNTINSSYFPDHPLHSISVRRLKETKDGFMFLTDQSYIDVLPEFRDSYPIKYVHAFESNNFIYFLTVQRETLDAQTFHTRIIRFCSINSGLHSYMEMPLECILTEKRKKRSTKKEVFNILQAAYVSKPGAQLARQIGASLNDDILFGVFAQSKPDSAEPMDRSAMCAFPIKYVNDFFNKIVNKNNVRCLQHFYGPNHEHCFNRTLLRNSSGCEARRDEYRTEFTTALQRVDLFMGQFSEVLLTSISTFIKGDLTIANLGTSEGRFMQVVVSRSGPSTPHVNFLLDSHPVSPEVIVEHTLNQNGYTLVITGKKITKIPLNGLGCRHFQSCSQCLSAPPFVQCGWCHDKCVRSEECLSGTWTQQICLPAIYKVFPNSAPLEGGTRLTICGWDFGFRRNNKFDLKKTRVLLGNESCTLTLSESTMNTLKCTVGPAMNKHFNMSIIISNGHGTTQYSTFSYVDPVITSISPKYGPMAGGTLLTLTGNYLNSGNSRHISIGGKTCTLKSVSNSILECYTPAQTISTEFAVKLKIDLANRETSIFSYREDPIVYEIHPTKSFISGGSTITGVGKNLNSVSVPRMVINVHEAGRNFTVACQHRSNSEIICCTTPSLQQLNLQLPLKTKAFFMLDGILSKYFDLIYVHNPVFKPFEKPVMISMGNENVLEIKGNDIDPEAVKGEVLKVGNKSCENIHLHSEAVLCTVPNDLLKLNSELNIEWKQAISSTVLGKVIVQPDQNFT

First: B3
Second: B4
The ECL signal of the first is higher: 429 for the first, 280 for the second.

First: B5
Second: B6
The ECL signal of the first is higher: 352 for the first, 303 for the second.

In the case of B7, the ECL signal is reported as 319.

Target: T6, rHuman Notch-1/Fc Chimera, CF (R&D Systems Cat#3647-TK) (human, UniProt P46531 19-526)
T6 construct: Bought recombinant protein
Experiment: as above

Compared with B3, B4 is lower in ECL signal: 510 for the first, 349 for the second.

B5 and B6 are the same in ECL signal: 421 for the first, 421 for the second.

For B7, the ECL signal was 365.

Target: T7, rHuman CD44/Fc Chimera, CF (R&D Systems Cat#3660-CD) (human, UniProt P16070 21-220)
T7 construct: Bought recombinant protein
Experiment: as above

First: B3
Second: B4
The ECL signal of the first is higher: 471 for the first, 256 for the second.

First: B5
Second: B6
The ECL signal of the first is lower: 426 for the first, 506 for the second.

For B7, the ECL signal was 371.

Target: T8, rHuman IGF-1 sR, (IGF-1 sR), CF (R&D Systems Cat#391-GR) (human, UniProt P08069 31-932)
T8 construct: Bought recombinant soluble receptor; also called insulin-like growth factor-1 soluble receptor
Experiment: as above

Compared with B3, B4 is lower in ECL signal: 407 for the first, 267 for the second.

Compared with B5, B6 is higher in ECL signal: 350 for the first, 365 for the second.

For B7, the ECL signal was 405.

Target: T9, rHuman P-Cadherin/Fc Chimera, CF (R&D Systems Cat#861-PC) (human, UniProt P22223 108-654)
T9 construct: Bought recombinant protein
Experiment: as above

First: B3
Second: B4
The ECL signal of the first is higher: 451 for the first, 369 for the second.

First: B5
Second: B6
The ECL signal of the first is higher: 480 for the first, 444 for the second.

In the case of B7, the ECL signal is reported as 346.

Target: T1, rHuman Erythropoietin R/Fc Chimera, CF …
Experiment: as above

First: B3
Second: B4
The ECL signal of the first is lower: 596 for the first, 599 for the second.

Compared with B5, B6 is lower in ECL signal: 504 for the first, 500 for the second.

B7 was tested, and the ECL signal was 427.

Target: T10, Recombinant Human DLL4 (R&D Systems Cat#1506-D4/CF) (human, UniProt Q9NR61 27-524)
T10 construct: Bought recombinant protein; also called delta-like protein 4; rHuman DLL4
Experiment: as above

Compared with B3, B4 is higher in ECL signal: 154000 for the first, 189000 for the second.

Compared with B5, B6 is lower in ECL signal: 221000 for the first, 174000 for the second.

Binder B7 has an ECL signal of 155000.

Reference: patent publication US20120316071A1 (published 2012)
